Among the data in paper doi:10.1101/2025.08.12.669882 are response (relative to MBOAT7) values, retold here.

This assay concerns the target TG (triacylglycerol). Briefly: TG binding assay with purified proteins, TLC of radiolabeled TG. The conditions noted are these: 2.5 mol % TG; parent: est. 1.5; read off a plot.

On to LDAC (m1 + m2) F57A; S61A; L105A; S109A, for which the response (relative to MBOAT7) came to 1.2.
